The results in this text go back to PMC7064778 (mBio, 2020).

B1: Pyocin S5 (natural protein)
chain: MSNDNEVPGSMVIVAQGPDDQYAYEVPPIDSAAVAGNMFGDLIQREIYLQKNIYYPVRSIFEQGTKEKKEINKKVSDQVDGLLKQITQGKREATRQERVDVMSAVLHKMESDLEGYKKTFTKGPFIDYEKQSSLSIYEAWVKIWEKNSWEERKKYPFQQLVRDELERAVAYYKQDSLSEAVKVLRQELNKQKALKEKEDLSQLERDYRTRKANLEMKVQSELDQAGSALPPLVSPTPEQWLERATRLVTQAIADKKQLQTTNNTLIKNSPTPLEKQKAIYNGELLVDEIASLQARLVKLNAETTRRRTEAERKAAEEQALQDAIKFTADFYKEVTEKFGARTSEMARQLAEGARGKNIRSSAEAIKSFEKHKDALNKKLSLKDRQAIAKAFDSLDKQMMAKSLEKFSKGFGVVGKAIDAASLYQEFKISTETGDWKPFFVKIETLAAGAAASWLVGIAFATATATPIGILGFALVMAVTGAMIDEDLLEKANNLVISI
B2: PyoS5_(1–196) (domain or fragment)
chain: MSNDNEVPGSMVIVAQGPDDQYAYEVPPIDSAAVAGNMFGDLIQREIYLQKNIYYPVRSIFEQGTKEKKEINKKVSDQVDGLLKQITQGKREATRQERVDVMSAVLHKMESDLEGYKKTFTKGPFIDYEKQSSLSIYEAWVKIWEKNSWEERKKYPFQQLVRDELERAVAYYKQDSLSEAVKVLRQELNKQKALKE
notes: source: E. coli BL21(DE3), purified (HisTrap HP, Superdex 200 SEC)
B3: ferric pyochelin transporter FptA (receptor)
chain: DARKDGETELPDMVISGESTSATQPPGVTTLGKVPLKPRELPQSASVIDHERLEQQNLFSLDEAMQQATGVTVQPFQLLTTAYYVRGFKVDSFELDGVPALLGNTASSPQDMAIYERVEILRGSNGLLHGTGNPAATVNLVRKRPQREFAASTTLSAGRWDRYRAEVDVGGPLSASGNVRGRAVAAYEDRDYFYDVADQGTRLLYGVTEFDLSPDTLLTVGAQYQHIDSITNMAGVPMAKDGSNLGLSRDTYLDVDWDRFKWDTYRAFGSLEQQLGGGWKGKVSAEYQEADSRLRYAGSFGAIDPQTGDGGQLMGAAYKFKSIQRSLDANLNGPVRLFGLTHELLGGVTYAQGETRQDTARFLNLPNTPVNVYRWDPHGVPRPQIGQYTSPGTTTTTQKGLYALGRIKLAEPLTLVVGGRESWWDQDTPATRFKPGRQFTPYGGLIWDFARDWSWYVSYAEVYQPQADRQTWNSEPLSPVEGKTYETGIKGELADGRLNLSLAAFRIDLENNPQEDPDHPGPPNNPFYISGGKVRSQGFELEGTGYLTPYWSLSAGYTYTSTEYLKDSQNDSGTRYSTFTPRHLLRLWSNYDLPWQDRRWSVGGGLQAQSDYSVDYRGVSMRQGGYALVNMRLGYKIDEHWTAAVNVNNLFDRTYYQSLSNPNWNNRYGEPRSFNVSLRGAF
B4: PyoS5_(1–299) (domain or fragment)
chain: MSNDNEVPGSMVIVAQGPDDQYAYEVPPIDSAAVAGNMFGDLIQREIYLQKNIYYPVRSIFEQGTKEKKEINKKVSDQVDGLLKQITQGKREATRQERVDVMSAVLHKMESDLEGYKKTFTKGPFIDYEKQSSLSIYEAWVKIWEKNSWEERKKYPFQQLVRDELERAVAYYKQDSLSEAVKVLRQELNKQKALKEKEDLSQLERDYRTRKANLEMKVQSELDQAGSALPPLVSPTPEQWLERATRLVTQAIADKKQLQTTNNTLIKNSPTPLEKQKAIYNGELLVDEIASLQARLVKL
B5: PyoS5_(1–315) (domain or fragment)
chain: MSNDNEVPGSMVIVAQGPDDQYAYEVPPIDSAAVAGNMFGDLIQREIYLQKNIYYPVRSIFEQGTKEKKEINKKVSDQVDGLLKQITQGKREATRQERVDVMSAVLHKMESDLEGYKKTFTKGPFIDYEKQSSLSIYEAWVKIWEKNSWEERKKYPFQQLVRDELERAVAYYKQDSLSEAVKVLRQELNKQKALKEKEDLSQLERDYRTRKANLEMKVQSELDQAGSALPPLVSPTPEQWLERATRLVTQAIADKKQLQTTNNTLIKNSPTPLEKQKAIYNGELLVDEIASLQARLVKLNAETTRRRTEAERKAA
notes: as for B2

Common to all, as to settings: both partners purified
Assay [1] concerns the target B3. Put plainly: native MS.
Assay [2] deals with B3. The experiment in a line: SPR. A general note: In SPR one partner is held on a chip, and binding of the other changes the refractive index at the surface.
A further assay deals with T1, PyoS5_(1–315) Δ2–39 (P. aeruginosa, UniProt Q9I4Y4 1-315, Δ2–39).
T1 construct: source: E. coli BL21(DE3), purified (HisTrap HP, Superdex 200 SEC)
The experiment in a line: SPR.

For the next assay, the target named is T2, PyoS5_(1–315) Δ2–9 (P. aeruginosa, UniProt Q9I4Y4 1-315, Δ2–9).
T2 construct: source: E. coli BL21(DE3), purified (HisTrap HP, Superdex 200 SEC)
Put plainly: SPR.

Another assay has as its target T3, PyoS5_(1–315) Δ10–13 (P. aeruginosa, UniProt Q9I4Y4 1-315, Δ10–13).
T3 construct: source: E. coli BL21(DE3), purified (HisTrap HP, Superdex 200 SEC)
The experiment in a line: SPR.

In general, Kd refers to the free concentration of one partner at which half of the binding sites on the other are occupied at equilibrium, for simple one-to-one binding. A high value points to lower affinity.

Regarding B1, the binding result in assay [1] is on record as “binds”.

As for B2, binding in assay [2] was characterised by a dissociation constant (Kd) of 7.1 ± 0.7 µM.

Regarding B3, in the assay with PyoS5_(1–315) Δ2–39, binding was characterised by a dissociation constant (Kd) of 14.7 ± 0.4 µM. The binding result in the assay with PyoS5_(1–315) Δ2–9 and with PyoS5_(1–315) Δ10–13 was “binds” throughout.

Turning to B4, in assay [1], the binding result is reported as “binds”.

In turn, B5 showed a dissociation constant (Kd) in assay [2] of 6.5 ± 0.4 µM.
